Experimental data taken from paper PMC9177983, “Mechanism of transcription modulation by the transcription-repair coupling factor” (Nucleic Acids Research, 2021).

Target: reconstituted elongation complex (EC): His-tagged E. coli RNAP core complex on template DNA, non-template DNA … (E. coli, Core RNAP assembled with biotinylated 49-mer template/non-template DNA and RNA primer (nucleic acid sequences in the supplement). The text gives only 'RNAP core complex' from pIA900; alpha2-beta-beta')
Sequence (A1AGI6 whole entry, chain 1 of 4): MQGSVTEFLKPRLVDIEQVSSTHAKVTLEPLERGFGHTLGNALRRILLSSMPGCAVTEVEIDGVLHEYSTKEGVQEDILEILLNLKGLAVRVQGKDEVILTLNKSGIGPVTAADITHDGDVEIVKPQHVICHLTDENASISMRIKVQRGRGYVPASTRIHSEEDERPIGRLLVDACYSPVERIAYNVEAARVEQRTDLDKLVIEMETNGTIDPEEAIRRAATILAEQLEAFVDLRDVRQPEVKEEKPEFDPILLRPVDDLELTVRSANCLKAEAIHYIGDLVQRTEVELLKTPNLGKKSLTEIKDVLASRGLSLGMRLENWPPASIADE
Sequence (A1AIF9 whole entry, chain 2 of 4, further chain): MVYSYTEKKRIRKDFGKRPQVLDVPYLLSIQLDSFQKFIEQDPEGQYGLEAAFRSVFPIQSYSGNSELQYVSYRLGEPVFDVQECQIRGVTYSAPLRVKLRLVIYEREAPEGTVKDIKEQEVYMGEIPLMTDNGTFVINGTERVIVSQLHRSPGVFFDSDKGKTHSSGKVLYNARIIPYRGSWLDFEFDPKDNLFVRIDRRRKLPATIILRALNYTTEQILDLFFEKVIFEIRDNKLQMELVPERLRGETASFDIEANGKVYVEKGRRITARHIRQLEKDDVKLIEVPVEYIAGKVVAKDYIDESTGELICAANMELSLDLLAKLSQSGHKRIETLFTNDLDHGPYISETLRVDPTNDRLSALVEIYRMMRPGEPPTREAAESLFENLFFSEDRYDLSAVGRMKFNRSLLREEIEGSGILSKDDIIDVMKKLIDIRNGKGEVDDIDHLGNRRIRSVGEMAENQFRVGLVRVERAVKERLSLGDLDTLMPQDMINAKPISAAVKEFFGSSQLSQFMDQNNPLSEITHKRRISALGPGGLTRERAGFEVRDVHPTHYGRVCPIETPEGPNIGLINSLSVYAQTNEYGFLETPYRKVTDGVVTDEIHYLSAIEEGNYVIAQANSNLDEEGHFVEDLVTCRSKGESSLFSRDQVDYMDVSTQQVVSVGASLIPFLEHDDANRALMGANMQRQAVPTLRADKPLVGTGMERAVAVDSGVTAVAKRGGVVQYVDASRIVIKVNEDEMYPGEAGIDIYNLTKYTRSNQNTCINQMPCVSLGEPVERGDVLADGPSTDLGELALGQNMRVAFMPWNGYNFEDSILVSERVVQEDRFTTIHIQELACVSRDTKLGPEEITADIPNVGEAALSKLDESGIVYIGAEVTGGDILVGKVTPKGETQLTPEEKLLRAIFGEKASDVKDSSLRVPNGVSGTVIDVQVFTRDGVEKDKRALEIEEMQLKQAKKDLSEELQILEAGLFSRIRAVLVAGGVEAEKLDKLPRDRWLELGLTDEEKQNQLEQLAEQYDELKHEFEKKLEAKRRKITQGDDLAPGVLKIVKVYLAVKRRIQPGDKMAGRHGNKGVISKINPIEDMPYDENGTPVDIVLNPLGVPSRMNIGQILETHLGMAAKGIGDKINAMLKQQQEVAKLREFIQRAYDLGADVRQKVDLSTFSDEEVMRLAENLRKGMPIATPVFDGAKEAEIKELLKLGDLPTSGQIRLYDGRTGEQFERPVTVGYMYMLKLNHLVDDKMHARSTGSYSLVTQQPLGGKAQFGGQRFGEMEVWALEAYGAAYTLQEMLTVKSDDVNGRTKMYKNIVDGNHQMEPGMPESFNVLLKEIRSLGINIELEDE
Sequence (A7ZUK2 whole entry, chain 3 of 4, further chain): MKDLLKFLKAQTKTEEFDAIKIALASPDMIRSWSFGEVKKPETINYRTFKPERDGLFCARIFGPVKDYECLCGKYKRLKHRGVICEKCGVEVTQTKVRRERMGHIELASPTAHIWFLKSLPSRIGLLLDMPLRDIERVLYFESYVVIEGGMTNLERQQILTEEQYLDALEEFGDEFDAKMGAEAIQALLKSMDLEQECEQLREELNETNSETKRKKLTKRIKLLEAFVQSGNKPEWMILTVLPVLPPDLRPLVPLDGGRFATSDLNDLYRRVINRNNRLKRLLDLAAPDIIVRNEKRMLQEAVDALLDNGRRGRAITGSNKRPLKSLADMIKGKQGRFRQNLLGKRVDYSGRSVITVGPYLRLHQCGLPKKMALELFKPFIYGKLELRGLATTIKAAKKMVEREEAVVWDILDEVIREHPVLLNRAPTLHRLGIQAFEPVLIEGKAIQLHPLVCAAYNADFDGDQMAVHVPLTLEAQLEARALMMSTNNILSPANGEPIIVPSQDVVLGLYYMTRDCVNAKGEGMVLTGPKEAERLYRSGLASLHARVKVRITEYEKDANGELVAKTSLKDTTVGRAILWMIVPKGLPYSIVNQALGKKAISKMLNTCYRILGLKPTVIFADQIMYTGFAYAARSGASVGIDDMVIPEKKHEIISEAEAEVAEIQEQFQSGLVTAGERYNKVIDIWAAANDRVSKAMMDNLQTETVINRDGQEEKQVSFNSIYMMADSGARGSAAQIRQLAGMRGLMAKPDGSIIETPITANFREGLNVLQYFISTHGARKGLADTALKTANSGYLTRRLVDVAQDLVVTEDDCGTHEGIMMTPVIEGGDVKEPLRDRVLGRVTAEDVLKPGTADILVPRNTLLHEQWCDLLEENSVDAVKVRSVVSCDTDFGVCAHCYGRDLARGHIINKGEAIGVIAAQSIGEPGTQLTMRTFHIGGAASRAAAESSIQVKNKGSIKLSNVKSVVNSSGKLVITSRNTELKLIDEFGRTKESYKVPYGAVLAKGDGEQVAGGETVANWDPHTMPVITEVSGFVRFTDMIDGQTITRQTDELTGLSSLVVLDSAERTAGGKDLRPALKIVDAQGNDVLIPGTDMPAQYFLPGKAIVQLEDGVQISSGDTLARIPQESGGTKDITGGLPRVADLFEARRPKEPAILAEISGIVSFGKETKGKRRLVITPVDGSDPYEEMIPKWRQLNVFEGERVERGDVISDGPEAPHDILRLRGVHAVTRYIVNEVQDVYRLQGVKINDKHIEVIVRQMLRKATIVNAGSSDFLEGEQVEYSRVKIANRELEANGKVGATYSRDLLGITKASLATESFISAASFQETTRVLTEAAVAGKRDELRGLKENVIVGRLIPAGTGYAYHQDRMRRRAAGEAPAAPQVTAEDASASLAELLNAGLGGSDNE
Sequence (A1AHI0 2-91, chain 4 of 4, further chain): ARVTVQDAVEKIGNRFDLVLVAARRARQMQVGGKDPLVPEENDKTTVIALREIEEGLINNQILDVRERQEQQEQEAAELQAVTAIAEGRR
Test: SPR; BIAcore T200, SA chip; reconstituted EC on biotinylated 49-mer immobilised (550 RU after 1 M KCl wash); Mfd 0-640 nM flowed in SPR buffer (30 mM Tris/HCl pH 7.6, 40 mM KCl, 5 mM MgCl2, 0.005% P20, 0.25 mM EDTA, 0.5 mM DTT) with 0.5 mM ATPɣS; 20°C; 1:1 steady state affinity fit
Settings: both partners purified

B1: Mfd, the bacterial transcription-repair coupling factor (wild type) (natural protein, E. coli, UniProt P30958 1-1148, looked up)
chain: MPEQYRYTLPVKAGEQRLLGELTGAACATLVAEIAERHAGPVVLIAPDMQNALRLHDEISQFTDQMVMNLADWETLPYDSFSPHQDIISSRLSTLYQLPTMQRGVLIVPVNTLMQRVCPHSFLHGHALVMKKGQRLSRDALRTQLDSAGYRHVDQVMEHGEYATRGALLDLFPMGSELPYRLDFFDDEIDSLRVFDVDSQRTLEEVEAINLLPAHEFPTDKAAIELFRSQWRDTFEVKRDPEHIYQQVSKGTLPAGIEYWQPLFFSEPLPPLFSYFPANTLLVNTGDLETSAERFQADTLARFENRGVDPMRPLLPPQSLWLRVDELFSELKNWPRVQLKTEHLPTKAANANLGFQKLPDLAVQAQQKAPLDALRKFLETFDGPVVFSVESEGRREALGELLARIKIAPQRIMRLDEASDRGRYLMIGAAEHGFVDTVRNLALICESDLLGERVARRRQDSRRTINPDTLIRNLAELHIGQPVVHLEHGVGRYAGMTTLEAGGITGEYLMLTYANDAKLYVPVSSLHLISRYAGGAEENAPLHKLGGDAWSRARQKAAEKVRDVAAELLDIYAQRAAKEGFAFKHDREQYQLFCDSFPFETTPDQAQAINAVLSDMCQPLAMDRLVCGDVGFGKTEVAMRAAFLAVDNHKQVAVLVPTTLLAQQHYDNFRDRFANWPVRIEMISRFRSAKEQTQILAEVAEGKIDILIGTHKLLQSDVKFKDLGLLIVDEEHRFGVRHKERIKAMRANVDILTLTATPIPRTLNMAMSGMRDLSIIATPPARRLAVKTFVREYDSMVVREAILREILRGGQVYYLYNDVENIQKAAERLAELVPEARIAIGHGQMRERELERVMNDFHHQRFNVLVCTTIIETGIDIPTANTIIIERADHFGLAQLHQLRGRVGRSHHQAYAWLLTPHPKAMTTDAQKRLEAIASLEDLGAGFALATHDLEIRGAGELLGEEQSGSMETIGFSLYMELLENAVDALKAGREPSLEDLTSQQTEVELRMPSLLPDDFIPDVNTRLSFYKRIASAKTENELEEIKVELIDRFGLLPDPARTLLDIARLRQQAQKLGIRKLEGNEKGGVIEFAEKNHVNPAWLIGLLQKQPQHYRLDGPTRLKFIQDLSERKTRIEWVRQFMRELEENAIA
notes: Mfd (transcription-repair coupling factor), E. coli; mfd gene without ypet inserted in vector pSH1017, plasmid pHG4137; called full-length Mfd in the cryo-EM section; No tag is stated; purified by conventional chromatography; In the SPR it was flowed with 0.5 mM ATPɣS; also called TRCF; wildtype Mfd; source: E. coli BL21(λDE3)recA, purified (ammonium sulfate, DEAE, heparin Sepharose)
B1 was tested, and the Kd was 127 ± 6 nM.
